± gives the standard deviation of the averaged measurements.
Test system: ATP
Assay: switch fluorescence ratio, 500 uM ATP over buffer (Cy3 cluster intensity, sum of 5 cycles each) (fold (ratio)); higher = stronger signal-on switching upon ATP binding; sequences stand for … in TCGTCGGCAGCGTCAGATGTGTATAAGAGACAGTTTTTTTTTTTTTTTTTTTTTTTTT…TC
Conditions: aptamer strand: ATP DNA aptamer (quencher-CACCTGGGGGAGTATTGCGGAGGAAGG + anchor), 100 nM annealed; ATP concentration: 500 uM
How it was run: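 The quencher-labelled ATP aptamer, at 100 nM, was annealed to Cy3-labelled switching-strand clusters on a modified Illumina MiSeq flow-cell. The clusters were imaged in selection buffer, then after 15 min with 500 uM ATP at 22 °C, and this buffer/ATP cycle ran five times with NaOH stripping and re-annealing between runs. Per-cluster fluorescence ratios, summed target-cycle over summed buffer-cycle Cy3 intensity, were averaged per switch-domain sequence. Clusters outside 100-1000 RFU were excluded.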
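Note: ATP exposure 15 min at 22 °C before imaging.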

Sequence	switch fluorescence ratio
TCTGAATTCA	0.972 ± 0.026
TCTGACGGTG	1.01 ± 0.017
TCTGAGGGTT	1.13 ± 0.12
TCTGAGTAGG	1 ± 0.037
TCTGATATAG	1 ± 0.003
TCTGATGAAT	1.02 ± 0.034
TCTGCCACCT	1.023 ± 0.0075
TCTGCTAAAG	1.01 ± 0.022
TCTGCTAAGG	0.98406 ± 0.00079
TCTGCTAGTT	1.02 ± 0.021
TCTGCTTGAG	1.03 ± 0.022
TCTGGAGTT	1.077 ± 0.005
TCTGGATTGT	0.97294 ± 3.9e-05
TCTGGCCTTC	1.09 ± 0.1
TCTGGCGGGG	1.21 ± 0.38
TCTGGCGTTG	0.983 ± 0.01
TCTGGGACGT	0.9824 ± 0.0033
TCTGGGCAGC	1.04 ± 0.05
TCTGGGGATG	0.974 ± 0.072
TCTGGGGCGT	1.007 ± 0.0086
TCTGGGGCTG	0.969 ± 0.016
TCTGGGGGGA	1.01 ± 0.019
TCTGGGGGTG	1.02 ± 0.059
TCTGGGGTGT	1.13 ± 0.18
TCTGGGTATG	0.988 ± 0.016

Sequence	switch fluorescence ratio
TCTGGGTGGT	0.977 ± 0.042
TCTGGTAGAG	1.02 ± 0.023
TCTGGTAGTG	1.03 ± 0.035
TCTGGTCGCT	1.018 ± 0.01
TCTGTATCTA	0.993 ± 0.021
TCTGTCAAGG	1 ± 0.034
TCTGTCCCTT	1.01 ± 0.024
TCTGTGCAGG	1 ± 0.015
TCTGTGCTGG	0.98 ± 0.024
TCTGTGGCAA	1.18 ± 0.28
TCTGTGGCTG	1.05 ± 0.1
TCTGTGGTGT	1.026 ± 0.0028
TCTGTTATCG	0.983 ± 0.043
TCTGTTCTT	1 ± 0.023
TCTGTTGAAT	1.01 ± 0.072
TCTGTTGGGG	0.992 ± 0.038
TCTTAAGGGC	0.972 ± 0.01
TCTTAATGTA	0.985 ± 0.015
TCTTACAGTA	1.09 ± 0.04
TCTTAGACAT	0.9646 ± 0.0028
TCTTATAAAC	1.02 ± 0.023
TCTTATCTGG	0.972 ± 0.012
TCTTATTGG	1.02 ± 0.028
TCTTATTGGG	0.995 ± 0.042
TCTTCACTAA	1 ± 0.052

Sequence	switch fluorescence ratio
TCTTCGACCG	1.31 ± 0.28
TCTTCGGCGA	1.46 ± 0.16
TCTTCGGTTT	1.11 ± 0.12
TCTTGAAGG	0.953 ± 0.023
TCTTGAGCTT	1.04 ± 0.03
TCTTGCCCTG	0.977 ± 0.058
TCTTGGAGAA	1.05 ± 0.06
TCTTGGATGG	0.986 ± 0.04
TCTTGGCTTT	0.976 ± 0.019
TCTTGGGATT	0.981 ± 0.0029
TCTTGGGGGG	1 ± 0.019
TCTTGGTTTT	1.02 ± 0.044
TCTTGTCGGT	1 ± 0.034
TCTTTAAGGT	1.04 ± 0.023
TCTTTACAGT	1.05 ± 0.032
TCTTTCGGTG	1.02 ± 0.04
TCTTTGATTT	1 ± 0.048
TCTTTGCGCC	1.06 ± 0.019
TCTTTTAAGT	0.97 ± 0.033
TCTTTTAATT	1.05 ± 0.07
TCTTTTATGG	1.04 ± 0.093
TCTTTTCAGC	0.992 ± 0.045
TCTTTTGGAG	0.996 ± 0.045
TCTTTTGGTA	0.9895 ± 0.0052
TCTTTTTTCC	1.1 ± 0.1

Sequence	switch fluorescence ratio
TGAAAAAAAC	0.9871 ± 0.0072
TGAAAAAAGA	0.988 ± 0.019
TGAAAAAGTG	0.9941 ± 0.0077
TGAAAAATGG	1.01 ± 0.031
TGAAAAATTT	0.988 ± 0.025
TGAAAACGGT	1 ± 0.035
TGAAAAGTTG	0.987 ± 0.1
TGAAAATAGG	0.9771 ± 0.0068
TGAAAATGGT	0.996 ± 0.015
TGAAACACCG	1.46 ± 0.66
TGAAACATTT	0.975 ± 0.036
TGAAACGTAT	0.993 ± 0.023
TGAAAGATTT	1 ± 0.03
TGAAAGCCAC	1.1 ± 0.024
TGAAAGGGGA	1.03 ± 0.054
TGAAATCATA	0.996 ± 0.037
TGAAATTCTT	1.012 ± 0.0094
TGAACATTTT	1.07 ± 0.079
TGAACGGTTC	1.02 ± 0.021
TGAACTCGGG	0.989 ± 0.017
TGAACTCTAG	1.02 ± 0.059
TGAACTTGCT	1.02 ± 0.074
TGAAGAATGT	1.02 ± 0.017
TGAAGACATT	1.02 ± 0.04
TGAAGACCAT	1.016 ± 0.0058

Sequence	switch fluorescence ratio
TGAAGAGGAT	1.09 ± 0.15
TGAAGATCGC	1.02 ± 0.018
TGAAGCATTG	1.35 ± 0.38
TGAAGGATGG	1 ± 0.027
TGAAGGCAGG	1.01 ± 0.072
TGAAGGCCTT	0.9953 ± 0.0011
TGAAGGGAAA	1 ± 0.051
TGAAGGGGAG	1.01 ± 0.069
TGAAGGGGGG	0.984 ± 0.034
TGAAGGGTGC	1.02 ± 0.054
TGAAGGTCGT	0.99 ± 0.029
TGAAGGTTGG	1.02 ± 0.025
TGAAGTCG	0.999 ± 0.027
TGAAGTGGGG	0.954 ± 0.016
TGAAGTTTAC	2.03 ± 1.4
TGAAGTTTGC	0.999 ± 0.01
TGAAGTTTTT	1.02 ± 0.064
TGAATACGGG	1.006 ± 0.004
TGAATCAATT	1.06 ± 0.026
TGAATCAGG	1.01 ± 0.073
TGAATCCTCG	1.05 ± 0.012
TGAATGCTGA	0.961 ± 0.017
TGAATGGTTT	0.997 ± 0.031
TGAATGTAGC	0.9781 ± 0.0024
TGAATTTGGG	0.997 ± 0.064

Sequence	switch fluorescence ratio
TGACAATCCT	1.05 ± 0.016
TGACAGTTAT	1.06 ± 0.038
TGACCCGTAC	2.64 ± 1.7
TGACCGCTTT	1.12 ± 0.029
TGACCGTAGA	1.03 ± 0.028
TGACCTCTTA	0.992 ± 0.024
TGACGGGCAG	1.07 ± 0.015
TGACGGGGTA	1.04 ± 0.12
TGACGGGTTA	1.02 ± 0.022
TGACTATT	0.9948 ± 0.004
TGACTCGGGC	0.993 ± 0.022
TGACTGGGTT	1.02 ± 0.047
TGACTTGGGT	0.991 ± 0.01
TGACTTTCGC	1.06 ± 0.028
TGACTTTTTA	0.9933 ± 0.0075
TGAGAAATGG	1.02 ± 0.036
TGAGAAGGAA	1.033 ± 0.0093
TGAGACATGC	0.994 ± 0.038
TGAGACTGGG	0.993 ± 0.02
TGAGACTGGT	0.999 ± 0.023
TGAGAGCTGA	0.9825 ± 0.0063
TGAGAGCTGG	0.98517 ± 0.00094
TGAGAGGGTG	1.04 ± 0.041
TGAGAGGTTA	1.04 ± 0.013
TGAGATAGAG	0.975 ± 0.018

Sequence	switch fluorescence ratio
TGAGATTAGT	1.01 ± 0.026
TGAGCACAGG	1.455 ± 0.0091
TGAGCCGCGG	1.004 ± 0.0095
TGAGCTGGTA	0.981 ± 0.034
TGAGCTTAGA	1.02 ± 0.054
TGAGGAAAAG	1.006 ± 0.0065
TGAGGAAAGG	1.17 ± 0.25
TGAGGAAGGC	0.992 ± 0.039
TGAGGACAGT	1 ± 0.018
TGAGGCACGG	1.05 ± 0.056
TGAGGCAGAG	1.06 ± 0.015
TGAGGGCGAA	0.984 ± 0.01
TGAGGGGAAG	0.986 ± 0.021
TGAGGGGAAT	1 ± 0.012
TGAGGGGCGG	0.998 ± 0.039
TGAGGGGCTT	1 ± 0.073
TGAGGGGGGG	0.999 ± 0.034
TGAGGGGT	0.958 ± 0.027
TGAGGGGTTT	0.992 ± 0.015
TGAGGGTCGG	0.972 ± 0.041
TGAGGTACGG	1.01 ± 0.029
TGAGGTAGCG	0.981 ± 0.034
TGAGGTGTTT	0.992 ± 0.023
TGAGGTTAGT	1.09 ± 0.19
TGAGGTTGAG	1.03 ± 0.059

Sequence	switch fluorescence ratio
TGAGTAAAGC	1.03 ± 0.062
TGAGTACTGA	1.02 ± 0.024
TGAGTAGATA	1.01 ± 0.018
TGAGTATAGG	1.009 ± 0.003
TGAGTATTTA	0.993 ± 0.057
TGAGTCACCT	1.16 ± 0.037
TGAGTCTAG	0.997 ± 0.038
TGAGTCTTAA	1.01 ± 0.027
TGAGTGATTG	1.04 ± 0.052
TGAGTGCAAA	0.9933 ± 0.0023
TGAGTGCCTA	0.973 ± 0.047
TGAGTGCTGT	0.968 ± 0.02
TGAGTGGGAG	0.998 ± 0.021
TGAGTGGGTT	0.975 ± 0.031
TGAGTGTGAG	0.985 ± 0.035
TGAGTTAAGG	0.986 ± 0.012
TGAGTTAGAG	1.02 ± 0.026
TGAGTTAGTT	1.01 ± 0.016
TGAGTTATGG	0.968 ± 0.03
TGAGTTGACT	1 ± 0.015
TGAGTTGATT	1.01 ± 0.069
TGATAAAGTT	1.03 ± 0.034
TGATAACTGG	0.9745 ± 0.0064
TGATAATAGG	0.989 ± 0.021
TGATAATGGG	0.982 ± 0.036
